Laboratory results published in publication PMC11648839.

Legend:
[1] = molecular target: PmoA-eGFP (subunit A of the particulate methane monooxygenase enzyme complex, eGFP at the C-terminus) (UniProt Q607G3); assay: FRET or BRET; FRET-FLIM in living tobacco leaf epidermal cells; eGFP fusion as donor, mRFP fusion as acceptor; two-photon excitation at 920 nm, TCSPC; lifetime of the donor with acceptor compared with donor alone; region of interest on the nucleus
[2] = molecular target: eGFP-PmoA (subunit A of the particulate methane monooxygenase enzyme complex, eGFP at the N-terminus) (UniProt Q607G3); assay: as above

Row | Substance | average eGFP (donor) fluorescence lifetime with acceptor [1] | Δ (reduction of donor lifetime against donor alone) [1] | average eGFP (donor) fluorescence lifetime with acceptor [2] | Δ (reduction of donor lifetime against donor alone) [2]
1 | mRFP-PmoC (subunit C of the particulate methane monooxygenase enzyme complex, mRFP at the N-terminus) (natural protein) | 2.2 ns | 0.2 ns | 2.2 ns | 0.2 ns
2 | PmoC-mRFP (subunit C of the particulate methane monooxygenase enzyme complex, mRFP at the C-terminus) (natural protein) | 2.2 ns | 0.2 ns | – | –
